In paper PMC9482650, “Quantitative fragmentomics allow affinity mapping of interactomes” (Nature Communications, 2022):
Values belong to the binder of their own block, whether it stands above or below them.

Tests used:
Assay in all cases: holdup assay
Set-up in all cases: key: below the threshold = too weak to quantify, mostly under pKd 3.1 to 4
[1] = target: NHERF4_4, Q86UT5
[2] = target: T1, FRMPD1, Q5SYB0
T1 sequence (Q5SYB0 52-145, limits assumed, looked up): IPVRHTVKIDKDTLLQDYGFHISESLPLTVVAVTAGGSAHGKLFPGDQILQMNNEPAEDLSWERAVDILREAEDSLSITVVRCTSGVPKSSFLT

[3] = target: PDLIM1, O00151
Chain of PDLIM1, O00151 (O00151 1-87): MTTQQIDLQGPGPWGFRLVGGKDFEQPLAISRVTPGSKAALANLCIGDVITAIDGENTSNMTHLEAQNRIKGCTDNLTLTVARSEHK

[4] = target: T2, CARD11, Q9BXL7
T2 sequence (Q9BXL7 662-765, limits assumed, looked up): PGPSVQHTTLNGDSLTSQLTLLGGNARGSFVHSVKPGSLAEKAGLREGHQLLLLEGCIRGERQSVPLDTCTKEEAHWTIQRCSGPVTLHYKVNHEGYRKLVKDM

[5] = target: T3, MPP2, Q14168
T3 sequence (Q14168 180-250, limits assumed, looked up): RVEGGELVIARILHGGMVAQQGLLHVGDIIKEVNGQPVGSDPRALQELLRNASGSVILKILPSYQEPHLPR

[6] = target: DLG1_3, Q12959
Chain of DLG1_3, Q12959 (Q12959 457-571): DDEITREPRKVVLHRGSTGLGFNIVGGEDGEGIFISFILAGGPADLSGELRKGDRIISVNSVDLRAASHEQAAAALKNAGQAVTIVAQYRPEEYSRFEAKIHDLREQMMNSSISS

[7] = target: LDB3, O75112
Chain of LDB3, O75112 (O75112 1-94): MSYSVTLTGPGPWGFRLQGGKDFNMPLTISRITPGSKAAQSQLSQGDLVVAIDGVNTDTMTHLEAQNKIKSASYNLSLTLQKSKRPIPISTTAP

[8] = target: GORASP2, Q9H8Y8
[9] = target: T4, LIN7B, Q9HAP6
T4 sequence (Q9HAP6 88-185, limits assumed, looked up): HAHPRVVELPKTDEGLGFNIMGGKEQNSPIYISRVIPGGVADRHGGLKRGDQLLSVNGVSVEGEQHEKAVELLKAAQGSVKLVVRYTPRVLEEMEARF

[10] = target: T5, PARD3B_1, Q8TEW8
T5 sequence (Q8TEW8 196-299, limits assumed, looked up): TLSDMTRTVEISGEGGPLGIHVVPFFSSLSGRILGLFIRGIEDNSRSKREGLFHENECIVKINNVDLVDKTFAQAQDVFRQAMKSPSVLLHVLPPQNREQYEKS

[11] = target: T6, GRIP1_4, Q9Y3R0
T6 sequence (Q9Y3R0 467-571, limits assumed, looked up): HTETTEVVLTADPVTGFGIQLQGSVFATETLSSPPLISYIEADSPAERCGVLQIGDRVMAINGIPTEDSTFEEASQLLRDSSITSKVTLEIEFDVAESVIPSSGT

[12] = target: GRIP2_4, Q9C0E4
Chain of GRIP2_4, Q9C0E4 (Q9C0E4 446-548): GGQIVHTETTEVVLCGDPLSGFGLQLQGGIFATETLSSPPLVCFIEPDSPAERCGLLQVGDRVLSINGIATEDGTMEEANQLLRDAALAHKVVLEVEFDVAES

[13] = target: T7, APBA1_2, Q02410
T7 sequence (Q02410 742-832, limits assumed, looked up): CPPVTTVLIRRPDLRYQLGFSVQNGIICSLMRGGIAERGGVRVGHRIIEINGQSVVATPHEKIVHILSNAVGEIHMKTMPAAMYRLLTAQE

[14] = target: T8, NHERF3_3, Q5T2W1
T8 sequence (Q5T2W1 238-333, limits assumed, looked up): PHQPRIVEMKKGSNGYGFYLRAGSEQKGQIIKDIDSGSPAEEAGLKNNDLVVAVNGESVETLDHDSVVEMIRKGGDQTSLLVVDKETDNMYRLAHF

[15] = target: LNX1_2, Q8TBB1
Chain of LNX1_2, Q8TBB1 (Q8TBB1 371-470): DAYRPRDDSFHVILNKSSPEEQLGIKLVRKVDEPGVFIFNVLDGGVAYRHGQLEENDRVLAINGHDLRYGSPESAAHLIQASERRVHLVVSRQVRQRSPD

[16] = target: T9, DVL3, Q92997
T9 sequence (Q92997 244-331, limits assumed, looked up): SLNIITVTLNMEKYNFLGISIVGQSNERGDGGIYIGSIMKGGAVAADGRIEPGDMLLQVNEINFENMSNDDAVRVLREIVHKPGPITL

[17] = target: T10, PDZD7_3, Q9H5P4
T10 sequence (Q9H5P4 857-944, limits assumed, looked up): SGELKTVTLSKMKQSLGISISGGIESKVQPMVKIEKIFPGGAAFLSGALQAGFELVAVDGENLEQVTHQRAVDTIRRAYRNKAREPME

[18] = target: T11, HTRA4, P83105
T11 sequence (P83105 378-476, limits assumed, looked up): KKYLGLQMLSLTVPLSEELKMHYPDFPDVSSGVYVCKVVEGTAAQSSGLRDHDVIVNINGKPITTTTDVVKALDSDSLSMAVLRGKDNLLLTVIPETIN

[19] = target: T12, NHERF3_4, Q5T2W1
T12 sequence (Q5T2W1 373-468, limits assumed, looked up): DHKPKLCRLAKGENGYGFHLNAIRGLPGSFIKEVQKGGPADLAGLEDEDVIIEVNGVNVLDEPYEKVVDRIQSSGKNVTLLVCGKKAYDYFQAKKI

[20] = target: T13, SHANK1, Q9Y566
T13 sequence (Q9Y566 658-767, limits assumed, looked up): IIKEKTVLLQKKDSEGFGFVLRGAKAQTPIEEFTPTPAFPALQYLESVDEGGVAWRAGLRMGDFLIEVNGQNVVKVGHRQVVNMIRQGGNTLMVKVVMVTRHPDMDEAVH

[21] = target: TJP2_1, Q9UDY2
Chain of TJP2_1, Q9UDY2 (Q9UDY2 24-128): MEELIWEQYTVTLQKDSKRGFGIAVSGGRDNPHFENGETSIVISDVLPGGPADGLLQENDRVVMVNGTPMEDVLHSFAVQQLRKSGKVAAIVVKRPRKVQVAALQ

[22] = target: SCRIB_3, Q14160
Chain of SCRIB_3, Q14160 (Q14160 999-1103): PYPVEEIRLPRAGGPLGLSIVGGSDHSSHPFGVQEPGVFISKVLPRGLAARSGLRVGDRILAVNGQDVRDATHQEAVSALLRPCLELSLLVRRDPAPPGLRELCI

[23] = target: AHNAK1, Q09666
Chain of AHNAK1, Q09666 (Q09666 4-100): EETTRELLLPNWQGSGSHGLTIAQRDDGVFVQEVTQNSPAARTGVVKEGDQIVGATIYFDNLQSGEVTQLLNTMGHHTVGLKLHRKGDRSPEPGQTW

[24] = target: GOPC, Q9HD26
[25] = plain residues with an end cap or a label only (N-terminal biotin on a linker: ahx)
[26] = plain residues with an end cap or a label only (N-terminal biotin on a linker: ado-ado)
[27] = plain residues with an end cap or a label only (N-terminal biotin on a linker: ttds)

Chain of NHERF4_4, Q86UT5 (Q86UT5 464-550): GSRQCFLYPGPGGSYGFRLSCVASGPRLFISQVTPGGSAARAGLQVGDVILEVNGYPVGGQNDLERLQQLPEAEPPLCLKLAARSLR

pKd [1, 25]: below the threshold
pKd [2, 25]: below the threshold
pKd [3, 25]: 3.72
pKd [4, 25]: below the threshold
pKd [5, 25]: below the threshold
pKd [6, 25]: 3.56
pKd [7, 25]: below the threshold
pKd [8, 25]: below the threshold
pKd [9, 25]: below the threshold
pKd [10, 25]: below the threshold
pKd [11, 25]: below the threshold
pKd [12, 25]: below the threshold
pKd [13, 25]: below the threshold
pKd [14, 25]: below the threshold
pKd [15, 25]: below the threshold
pKd [16, 25]: below the threshold
pKd [17, 25]: 3.87
pKd [18, 25]: below the threshold
pKd [19, 25]: below the threshold
pKd [20, 25]: below the threshold
pKd [21, 25]: below the threshold
pKd [22, 25]: 3.74
pKd [23, 25]: below the threshold
pKd [24, 25]: 3.75
Binder: HSATSVHTSV [MTMR1, Q13613]

pKd [1, 26]: below the threshold
pKd [2, 26]: below the threshold
pKd [3, 26]: below the threshold
pKd [4, 26]: below the threshold
pKd [5, 26]: below the threshold
pKd [6, 26]: below the threshold
pKd [7, 26]: below the threshold
pKd [8, 26]: below the threshold
pKd [9, 26]: below the threshold
pKd [10, 26]: below the threshold
pKd [11, 26]: below the threshold
pKd [12, 26]: below the threshold
pKd [13, 26]: below the threshold
pKd [14, 26]: 3.61
pKd [15, 26]: below the threshold
pKd [16, 26]: below the threshold
pKd [17, 26]: below the threshold
pKd [18, 26]: below the threshold
pKd [19, 26]: below the threshold
pKd [20, 26]: 3.76
pKd [21, 26]: below the threshold
pKd [22, 26]: 3.58
pKd [23, 26]: below the threshold
pKd [24, 26]: below the threshold
Binder: EKPIDSETKM [SLC1A3, P43003]

pKd [1, 27]: below the threshold
pKd [2, 27]: below the threshold
pKd [3, 27]: below the threshold
pKd [4, 27]: below the threshold
pKd [5, 27]: below the threshold
pKd [6, 27]: 4.28
pKd [7, 27]: below the threshold
pKd [8, 27]: below the threshold
pKd [9, 27]: 3.49
pKd [10, 27]: 3.76
pKd [11, 27]: below the threshold
pKd [12, 27]: below the threshold
pKd [13, 27]: 3.32
pKd [14, 27]: below the threshold
pKd [15, 27]: below the threshold
pKd [16, 27]: below the threshold
pKd [17, 27]: 4.89
pKd [18, 27]: below the threshold
pKd [19, 27]: below the threshold
pKd [20, 27]: below the threshold
pKd [21, 27]: below the threshold
pKd [22, 27]: 4.97
pKd [23, 27]: below the threshold
pKd [24, 27]: 3.6
Binder: PSRDRKETSI [RALBP1, Q15311]
